assay: soluble on expression in E. coli; label from the status in PepcDB or PDB records

Sequence | soluble on expression in E. coli
MTNLELSGSQSYLNDESTANLSSLAGKFLVQFWGVRGLIPTPSSNTSRYGGNTACVEMQVAGKRLIFDGGTGLRILGKAWQHLQQPLEAHLFFTNSQSNRIQGFPFFAPAFIAGNCFHIYGGAASNGASIKQCLCDQMLQPHFPYPLQVMQSELQFYPLTPDSEVKLDDVTIRTALINQTQRSIGYRVTWQEYSVAYVTDLNMSAEQGEREQVLQIIQDVDLLIANATYTPPTSHDHESVDLLWQAAVEMAQKAGVRKLIISHHHPDDHDDFLDQVEKEVQSTFSDALLACEGLALPVFLEHHHHHH | soluble
MGSDKIHHHHHHMEQLQKRKIYDTTASNASTGILNGKSSNVLNWDDVRFSWAYPLYKNMLANFWTPFEINMSHDAKQFPTLTETEQEAFKKIIGLLAFLDSVQTDYSMRAAEYLTDSSLAALMSVLSFQEVVHNQSYSYVLSSLVPKATQDEIFEYWKHDDVLKERNEFIIDGYEKFVDNPTPKTFLESIVYDVILEGLNFYSGFAFFYNLARNQKMVSTSTMINYINRDEQLHVYLFTNIFKELLVEFPELNTEETKTFVKTTLMKAADLEKDWFRYIIGDKIPGINPEDMETYISFIANKRAVQLGMEKPYPEIKHNPMKWIRAYEDVNSGKSDFFEQKSRQYAKVSADNGFDEL | not soluble
MLSKIELMLLRSLETGKTYTPEEAAELSGLSKDAVLKAAYMLQERGYVRVIENVRTHYSLTEEGERYLKEGLPEEKLYSLVKSGVNSMDELRKRMGREFQIALGWLRRKGAVEVEGDKVVPKREPSFDERA | soluble
MSLANILAIDDSGLMQAFWVRILSRSQHNVITVSSGDEMRGVLATMNPQLIFLDLSFPGENGFELLQHIRSYQHCLEIPVIAVSGYAGEDTRQACREAGFTDFLAKPFSLAELRGMLARYLDHATEGHHHHHH | not soluble
MAAESATTETVEKSGNEESTVEVKVNGEAQNPPQESAKPAESVEDDDEPAPAKKRSGGDSEEKEDEAAEDGPEDGEEKSNLDDDQNVENPAYIPKTGRFYMHDDNRRGDVNNSQVQDDDSDDRRNLKKSRADCDWKHDRFDEKFQRPKTKKQIVTKYGFDIRHKDGTPIQDGEEIDAPAPESTEEESSDARQVSRQQKDRRVSSTTRGKVGKSGTSRRPMKQREREDTVDESKGEEEEDQGVRPAQKRQVKQQEKPRKQKPAAPPSSEENEEDEDDGAIRRGQRRAVPLRRGTTSGPPSRLRGRMSHPMGPPRRSSGAPPSSASNRRPVESSSRGPPPPPSSSSRRDYSHQGDRNDDRFENHRRGVIRGASRGGGTVTRGTGGYGRTGAIRGGVRGSGAPRYGVRRTDTSEQSEGYQRGGSGTDYSSPRPNHQSDRSYQASSTNFRGGSHPHPSANVYPSSRGGYSSNNADYASRGGGGYHGPPQHHNNHHNHQQKRFVQGPPPPMVAVGVVPGNVVPPPQMTRGSTHGGNQHNGGGGGGSGGQQRIRQPTDVVYFDPQQQQGTRQLPPRSKKVIPIVDPKDHQ | not soluble
MSQPVAFVTGCSSGIGRALADAFQRAGYRVWASARKEDDVRALAEAGFQAVQLDVNDAAALARLAEELGVEAAGLDVLVNNAGYGAMGPLLDGGVEAMRRQFETNVFAVVGVTRALFPLLRRKSGLVVNVGSVSGVLVTPFAGAYCASKAAVHALSDALRLELAPFGVEVLEVQPGAIASNFGASASREMDSVVDERSPWWPLRRQIQARAAASQDNPTSAEDFARQLLAAVQRRPRPPLVRIGNGSRALPALARWLPRGLLERLLKKRFGLDTRL | not soluble
MTEKKLLMGNEAIAFGAIEAGVQVVTGYPGTPSTEALETIARHAEKCGVYAEWSSNEKVALETAAGAAYSGAKALVTMKQVGLNVASDPLMSLTYIGVKGALVLLVADDPGPHSSQTEQDTRSFGHFANIPVLDPASPQEAYELTKLAFEISHQFEVPVILRTTTRVSHSSGDVELLNSEPSPVEAFC | not soluble
SNAMTKIYFAGPLFSQADLRYNAYLVEQIRQLDKTIDLYLPQENAAINDKSAYADSKMIALADTENVLASDLLVALLDGPTIDAGVASEIGVAYAKGIPVVALYTDSRQQGADNHQKLDALNEIAENQFHYLNLYTVGLIKLNGRVVSSEEDLLEEIKQRLS | soluble
MSLEKHRMLVIDDDPIAHQIMQMLFEAELRLTCKVTGEEGLSAVEEEQPEIVLLDIEMEGMDGYEACRRIRQLNLPSQPYIIFVSAHSDPVKRLAAYSVGGEDFVSKPLQPQELTRKVEQALRYRREGHHHHHH | not soluble
MGEFIGNEEFQNFMKATGFIQEFTRRLLERSSKNIIKIPDNLSNVNQLTCLVKQFLREQQDLAVKVEKVQENQKNLSDFVKEKLTNCNCHVQLDVRNLLAKEMKLQDLRQDDGLDFSIKLPSTSSTDFTVSLNQVVDADAQQRFDLELLKMFGAGNIPHFQPPPDLYQHHHIPHTSQQVAQENLAMLANVPKLDDNNAYFDTFSPEKSGKRAKKRAAPSSAHEAQPNNGPYKCRDCEKTFRQKHGLNQHLLTHETNGAFECDGCGKRYSRQESVYRHQRSTPCTKYQNLTTVEHDDTGALF | not soluble
MSLRKTVAFGFVGTVLDYAGRGSQRWSKWRPSLCICQQESLVIDRLELLHDARSRSLFETLKRDIASVSPETEVVSVEIELHNPWDFEEVYACLHDFARGYEFQPEKEDYLIHITTGTHVAQICWFLLAEARYLPARLIQSSPPRKKEQPRGAGEVTIIDLDLSLYNAIASRFAEERQQTLDEGHHHHHH | soluble
MVGPLNGAIGDITGAASELENIPFIGPAIGAKLQRTMRGINVAQAKVGQVVAMYGRATSAVSQVQERIGTLKEQASKASAAINRVAGKISPSLGNIVPTGSFASQATPAPEAVKPFPHLLIIQPLKPEAQPYYFNLDTAAFDELRRQTAFRWAGQERLTRSIAQQAVGLGDDKLSLKGSIFPGFKGGLKQLNTLRSMGRNLQPLSLTTGYGEVLGNWCLLSVDEEQSNLLAGGIPRKQGFSLEFVSYGDDLQNV | not soluble
MKLPDELRQAYQKNARQFSWVFPLETEQTALAIFAAGEKAYQGERFFWQTPKKDFALVGFGYETILKGAETETHQLNNFLKKEAATRFQNMSISGTGALLFGGLPFDTEQTPTEAWGELGEGWFYLPSILFTFSGSRIYGTLNFSGSSEQEVEERWSTLVAQFDRLLATCEELPAVAETKIDKEEVAVTEWLQAVNETVAVLREDGPLKKVVLARQLAVSSPEKIRSNQVLVNLMAQQQNTYLFALEAKDTSFIGATPERLLLGTKETFATACIAGTIKTGQTPEETKTLGAQLLQDRKNTGEHQIVVERLAKELAKMTTSENSIQAPIILENRDVQHLYVPISGQRKPGISFLESVMQLHPTPALGGEPKELAVEWIRQYEPGSRGLYGAPIGWISGNDDSGEFAVALRSGVFAGQQGVLYAGCGIVADSQAELEREETKIKFQPMLRGIGGQV | not soluble
MTFRNCVAVDLGASSGRVMLARYERECRSLTLREIHRFNNGLHSQNGYVTWDVDSLESAIRLGLNKVCEEGIRIDSIGIDTWGVDFVLLDQQGQRVGLPVAYRDSRTNGLMPQAQQQLGKRDIYQRSGIQFLPFNTLYQLRALTEQQPELIPHIAHALLMPDYFSYRLTGKMNWEYTNATTTQLVNINSDDWDESLLAWSGANKAWFGRPTHPGNVIGHWICPQGNEIPVVAVASHDTASAVIASPLNGSRAAYLSSGTWSLMGFESQTPFTNDTALAANITNEGGAEGRYRVLKNIMGLWLLQRVLQERQINDLPALIAATQALPACRFIINPNDDRFINPDEMCSEIQAACRETAQPIPGSDAELARCIFDSLALLYADVLHELAQLRGEDFSQLHIVGGGCQNTLLNQLCADACGIRVIAGPVEASTLGNIGIELMTLDELNNVDDFRQVVSTTANLTTFTPNPDSEIAHYVAQIHSTRQTKELCA | not soluble
MPTPFDVTILGGGLAGRLCAWQLAQTGVPPARIAVVERGARDGSGSAAYVAAAMLAPLAEAAVADRFVVELGLASLTLWRDWLPMLRTPVFFQQAGTLVVWHPADRGEASLFANHVRAATPPERIAADLRAVDAEGIGTLEPALAQRFSQGLYLAGEGQLDNRAVLDALATELEALGVQLRWNTAVADPHPQALAAAGLGARLVLDCRGLGAQPQWPQLRGLRGEVARIHAPDVTLTRPVRMLHPRYPIYIAPKPGHVYVIGATEIESDDMSPVSVRSTLELLSAAYAVHPAFGEARVLELCTQCRPTLPDHRPAIRWDGAGTLSVNGLYRHGYMIAPAVAQAAVAAAHALLDGRAIDAPASAWPGLFAAPASPEPVLPLEHHHHHH | soluble
MGHHHHHHSHMARPWTEDGDWTEPGAPGGTEDRPSGGGKANRAHPIKQRPFPYEHKNTWSAQNCKNGSCVLDLSKCLFIQGKLLFAEPKDAGFPFSQDINSHLASLSMARNTSPTPDPTVREALCAPDNLNASIESQGQIKMYINEVCRETVSRCCNSFLQQAGLNLLISMTVINNMLAKSASDLKFPLISEGSGCAKVQVLKPLMGLSEKPVLAGELVGAQMLFSFMSLFIRNGNREILLETPAP | not soluble
MKSYIVIGAGILGASTAYHLAKEGASVMIIDRGDKGQATDAAAGIVCPWLSQRRNQKWYRLAKGGAKFYPSLIEELESYGETETGYARVGALWLHTDEQKLEQMEERALKRREDAPEMGEIVRLHPQEAKELFPPLVGEHHALYVSGAARVNGRAVRDALMNASQKRGAAYIRGNARLLFEGSRIIGVEADGTKYAAEAVIVTAGAWAGELLEPLGIKLLVTPQKGQLIHLEHPECDTSHWPVVMPPNNQYMLAFPGSRIVIGTTHEDEAGMDIRPTAGGMHELLDKALAVAPGLSTWTYIETRVGFRPRTPGFLPIFGPLPGFSGVYIANGLGSSGLTVGPYLGKELAKLVIGLPTELDPSDYDVASAVAPIVQ | not soluble
MKPYLMGNNPCGADATLFAFAASLLSPVFETPIRAAAESHPNLIAYMARMRTRYYPDFQGSGVFAPALEHHHHHH | not soluble
MTISELLQYCMAKPGAEQSVHNDWKATQIKVEDVLFAMVKEVENRPAVSLKTSPELAELLRQQHSDVRPSRHLNKAHWSTVYLDGSLPDSQIYYLVDASYQQAVNLLPEEKRKLLVQL | not soluble
MERVPLLPRRFSARPQGNQEAQERTAVKCEQVRYAIQEVIGRGAFGEVSSAEVVGTRDLVAIKRVIHDGRLRQRELTLMRDHLGPNTQQGGVSSLDVGNGVGAHATSVTGSNGEEANGTTAIDGLESWNMPTIVPYHPCVVKLLDHFFASDPSGVQYLFMVMDYIPLDVRRLHHMFLRQREQQMPIILVKVIMFQLARALAFLHARGICHRDVKPNNILVDQETGVVKLCDFGSAKKMQAVGGEGPREKNVPYIFSRYYRAPELLLGSQYYHFHVDMWAFGCVLAELLCGKVLFKGSSSTMDQLVEIIKVLGKPSERELFALNPQSAGSALIRTWGDSHNASQLSPTPSGPLPSSNSANADYMQRRSAPRVKSLLWVEVLPPNTSQAALSLIEQLLRYTPEERLTSAEVLEHVFFDELFSDDARLPNGAPLPASMFQVTREEAEILPPWLLERMAAAEGVAKG | soluble
MAAQRRSLLQSEQQPSWTDDLPLCHLSGVGSASNRSYSADGKGTESHPPEDSWLKFRSENNCFLYGVFNGYDGNRVTNFVAQRLSAELLLGQLNAEHAEADVRRVLLQAFDVVERSFLESIDDALAEKASLQSQLPEGVPQHQLPPQYQKILERLKTLEREISGGAMAVVAVLLNNKLYVANVGTNRALLCKSTVDGLQVTQLNVDHTTENEDELFRLSQLGLDAGKIKQVGIICGQESTRRIGDYKVKYGYTDIDLLSAAKSKPIIAEPEIHGAQPLDGVTGFLVLMSEGLYKALEAAHGPGQANQEIAAMIDTEFAKQTSLDAVAQAVVDRVKRIHSDTFASGGERARFCPRHEDMTLLVRNFGYPLGEMSQPTPSPAPAAGGRVYPVSVPYSSAQSTS | soluble

From the DeepSol protein solubility set
